Data: US6828304B1, “Peptides for treatment of cancer” (Dabur Research Foundation, priority 2000, dated 2004)
Peptide text beside a SMILES is read from it. * marks the point of attachment. Palmitoyl = CCCCCCCCCCCCCCCC(=O)*; Myristoyl = CCCCCCCCCCCCCC(=O)*; Octanoyl = CCCCCCCC(=O)*; Butyryl = CCCC(=O)*

Legend:
[1] = system: PTC (primary colon) tumor cells; assay: MTT cytotoxicity assay, PTC cells; type: cell-based, human; conditions: 48 hours
Excerpt: (§1) The cytotoxic effect of Lipo peptide analogs, DT-A1 (SEQ ID NO: 2), DT-B1 (SEQ ID NO: 3), DT-01 (SEQ ID NO: 4), DT-M1 (SEQ ID NO: 5) and DT-P1 (SEQ ID NO: 6) was studied by MTT assay which is based on the principle of uptake of MTT [3-[4,5-dimethylthiazol-2-yl]-2,5-diphenyl tetrazolium bromide], a tetrazolium salt by the metabolically active cells where it is metabolized by active mitochondria into a blue colored formazan product which can be read spectrophotometrically. Briefly, tumor cells PTC (primary colon) KB (Oral squamous), U87MG (Glioblastoma), HBL100 (Breast), HeP2 (Laryngeal), ECV304 (Endothelial), PA-1 (Ovary) and L132 (Lung) were incubated with the peptide analogs for 48 hours at 37° C. in a 96-well culture plate, followed by the addition of 100 μg MTT and _further incubation of 1 hour. The formazan crystals formed inside the cells were dissolved with a detergent comprising 10% Sodium dodecyl sulfate and 0.01 N HCl and optical density read on a multiscan ELISA reader. The optical density was directly proportional to the number of proliferating and metabolically active cells.

[2] = system: KB (Oral squamous) tumor cells; assay: MTT cytotoxicity assay, KB cells; type: cell-based; conditions: 48 hours
Excerpt: as §1

[3] = system: U87MG (Glioblastoma) tumor cells; assay: MTT cytotoxicity assay, U87MG cells; type: cell-based; conditions: 48 hours
Excerpt: as §1

[4] = system: HBL100 (Breast) tumor cells; assay: MTT cytotoxicity assay, HBL100 cells; type: cell-based; conditions: 48 hours
Excerpt: as §1

[5] = system: HeP2 (Laryngeal) tumor cells; assay: MTT cytotoxicity assay, HeP2 cells; type: cell-based; conditions: 48 hours
Excerpt: as §1

L132 (Lung) tumor cells = assay: MTT cytotoxicity assay, L132 cells; type: cell-based; conditions: 48 hours
Excerpt: as §1

PA-1 (Ovary) tumor cells = assay: MTT cytotoxicity assay, PA-1 cells; type: cell-based; conditions: 48 hours
Excerpt: as §1

[6] = system: ECV304 (Endothelial) cells; assay: MTT cytotoxicity assay, ECV304 cells; type: cell-based; conditions: 48 hours
Excerpt: as §1

[7] = system: human colon adenocarcinoma (PTC) xenografts; assay: Antitumor activity in PTC xenografts in nude mice; type: in vivo
Description: The antitumor activity of DT-B1 (SEQ ID NO: 3) was studied in human colon adenocarcinoma (PTC) xenografts in nude mice. PTC tumor xenografts were grown in Balb/c a thymic mice by subcutaneous inoculation of a single cell suspension of PTC cells (15×10^6 cells/100 EL). The tumor bearing animals were divided into 2 groups of three animals each including one group comprising untreated control animals. Treatment with DT-B1 was initiated when the average tumor volumes, as measured using a vernier caliper, were between 1.3 cm^3. Solutions of DT-B1 was prepared at a concentration of 126 μg/ml and intravenously administered to the assigned group of tumor bearing animals at a dose of 12.6 μg/100 μL twice a day so that the total dose of 25.2 μg/day was administered to each animal. The treatment was continued for a period of 14 days.
The antitumor activity of the compounds was monitored by measuring tumor volumes every fourth day using the formula W*W*L*0.4 (W=smaller diameter, L=larger diameter). The percentage inhibition of tumor growth was calculated using the formula (1-tumor volume-treated/tumor volume-control)* 100.

| Compound | Percentage cytotoxicity ([2]; 1 nM) [%] | Percentage cytotoxicity ([2]; 10 nM) [%] | Percentage cytotoxicity ([2]; 100 nM) [%] | Percentage cytotoxicity ([2]; 1 μM) [%] | Percentage cytotoxicity ([3]; 1 nM) [%] | Percentage cytotoxicity ([3]; 10 nM) [%] | Percentage cytotoxicity ([3]; 100 nM) [%] | Percentage cytotoxicity ([3]; 1 μM) [%] | Percentage cytotoxicity ([4]; 1 nM) [%] | Percentage cytotoxicity ([4]; 10 nM) [%] | Percentage cytotoxicity ([4]; 100 nM) [%] | Percentage cytotoxicity ([5]; 1 nM) [%] | Percentage cytotoxicity ([5]; 10 nM) [%] | Percentage cytotoxicity ([5]; 100 nM) [%] | Percentage cytotoxicity ([5]; 1 μM) [%] | Percentage cytotoxicity (L132 (Lung) tumor cells; 1 nM) [%] | Percentage cytotoxicity (L132 (Lung) tumor cells; 10 nM) [%] | Percentage cytotoxicity (L132 (Lung) tumor cells; 100 nM) [%] | Percentage cytotoxicity (L132 (Lung) tumor cells; 1 μM) [%] | Percentage cytotoxicity (PA-1 (Ovary) tumor cells; 1 nM) [%] | other results |
| --- | --- | --- | --- | --- | --- | --- | --- | --- | --- | --- | --- | --- | --- | --- | --- | --- | --- | --- | --- | --- | --- |
| CCCCCCCCCCCCCC(=O)N[C@@H](CC(C)C)C(=O)N[C@@H](CCSC)C(=O)N[C@@H](Cc1ccc(O)cc1)C(=O)N1CCC[C@H]1C(=O)N[C@H](C(=O)N[C@@H](Cc1ccc(O)cc1)C(=O)N[C@@H](CC(C)C)C(=O)N[C@@H](CCCCN)C(=O)O)[C@@H](C)O [DT-M1, Myristoyl-Leu-Met-Tyr-Pro-Thr-Tyr-Leu-Lys-OH] (Myristoyl-LMYPTYLK-OH) | 21.0 ± 26 | 23.9 ± 3.1 | 19.0 ± 3.2 | 12.9 ± 1.6 | 29.4 ± 1.2 | 44.9 ± 2.7 | 32.2 ± 2.2 | 5.0 ± 2.5 | 21.9 ± 2.4 | 31.6 ± 3.8 | 30.4 ± 2.4 | 15.8 ± 2.2 | 18.7 ± 2.2 | 22.9 ± 1.3 | 12.9 ± 1.2 | 10.6 ± 1.9 | 26.7 ± 1.1 | 16.8 ± 2.1 | 9.6 ± 2.4 | 27.5 ± 2.9 | Percentage cytotoxicity ([1]; 1 nM): 26 ± 0.5%; Percentage cytotoxicity ([1]; 10 nM): 25 ± 3.6%; Percentage cytotoxicity ([1]; 100 nM): 31 ± 4.6%; Percentage cytotoxicity ([1]; 1 μM): 30 ± 3.9%; Percentage cytotoxicity ([4]; 1 μM): 29.6 ± 2.3%; Percentage cytotoxicity (PA-1 (Ovary) tumor cells; 10 nM): 42.0 ± 2.2%; Percentage cytotoxicity (PA-1 (Ovary) tumor cells; 100 nM): 25.9 ± 3.3%; Percentage cytotoxicity (PA-1 (Ovary) tumor cells; 1 μM): 15.7 ± 1.2%; Percentage cytotoxicity ([6]; 1 nM): 21.9 ± 1.6%; Percentage cytotoxicity ([6]; 10 nM): 16.9 ± 3.1%; Percentage cytotoxicity ([6]; 100 nM): 22.9 ± 1.0%; Percentage cytotoxicity ([6]; 1 μM): 17.7 ± 1.2% |
| Ac-LMYPTYLK-OH [DT-A1, Acetyl-Leu-Met-Tyr-Pro-Thr-Tyr-Leu-Lys-OH] | 25.9 ± 1.6 | 31.0 ± 2.1 | 26.9 ± 2.1 | 21.0 ± 2.3 | 10.4 ± 1.3 | 29.9 ± 2.2 | 26.9 ± 1.5 | 21.9 ± 1.4 | 19.9 ± 3.5 | 31.9 ± 3.5 | 30.5 ± 1.3 | 14.9 ± 2.2 | 39.9 ± 1.8 | 21.9 ± 2.7 | 19.7 ± 1.1 | 13.9 ± 2.9 | 26.4 ± 3.2 | 14.6 ± 3.1 | 12.9 ± 2.4 | 21.9 ± 1.5 | Percentage cytotoxicity ([4]; 1 μM): 28.9 ± 1.2%; Percentage cytotoxicity (PA-1 (Ovary) tumor cells; 10 nM): 24.9 ± 2.6%; Percentage cytotoxicity (PA-1 (Ovary) tumor cells; 100 nM): 18.5 ± 2.3%; Percentage cytotoxicity (PA-1 (Ovary) tumor cells; 1 μM): 6.9 ± 3.2%; Percentage cytotoxicity ([6]; 1 nM): 8.0 ± 2.5%; Percentage cytotoxicity ([6]; 10 nM): 16.5 ± 3.4%; Percentage cytotoxicity ([6]; 100 nM): 22.0 ± 2.3%; Percentage cytotoxicity ([6]; 1 μM): 10.8 ± 3.4% |
| Palmitoyl-Leu-Met-Tyr-Pro-Thr-Tyr-Leu-Lys-OH (Palmitoyl-LMYPTYLK-OH) [DT-P1] | 21.9 ± 2.6 | 32.0 ± 2.1 | 23.0 ± 2.2 | 18.0 ± 2.6 | 9.6 ± 1.8 | 34.0 ± 2.6 | 32.9 ± 2.5 | 18.4 ± 2.4 | 25.7 ± 2.5 | 34.9 ± 3.6 | 33.3 ± 1.4 | 13.9 ± 1.2 | 24.9 ± 2.8 | 28.9 ± 1.7 | 14.9 ± 1.3 | 10.9 ± 1.9 | 29.0 ± 1.2 | 19.6 ± 1.1 | 17.8 ± 2.2 | 20.5 ± 1.9 | Percentage cytotoxicity ([1]; 1 nM): 27 ± 3.1%; Percentage cytotoxicity ([1]; 10 nM): 21 ± 1.2%; Percentage cytotoxicity ([1]; 100 nM): 33 ± 1.1%; Percentage cytotoxicity ([1]; 1 μM): 31 ± 3.1%; Percentage cytotoxicity ([4]; 1 μM): 28.9 ± 1.3%; Percentage cytotoxicity (PA-1 (Ovary) tumor cells; 10 nM): 21.9 ± 2.2%; Percentage cytotoxicity (PA-1 (Ovary) tumor cells; 100 nM): 25.6 ± 3.3%; Percentage cytotoxicity (PA-1 (Ovary) tumor cells; 1 μM): 21.7 ± 2.2%; Percentage cytotoxicity ([6]; 1 nM): 18.8 ± 2.6%; Percentage cytotoxicity ([6]; 10 nM): 19.9 ± 3.4%; Percentage cytotoxicity ([6]; 100 nM): 31.9 ± 1.3%; Percentage cytotoxicity ([6]; 1 μM): 25.9 ± 1.4% |
| n-Butanoyl-Leu-Met-Tyr-Pro-Thr-Tyr-Leu-Lys-OH (Butyryl-LMYPTYLK-OH) [DT-B1] | 21.9 ± 0.5 | 25.9 ± 4.1 | 18.9 ± 3.2 | 14.8 ± 2.3 | 33.9 ± 0.6 | 39.7 ± 2.7 | 30.7 ± 1.7 | 20.6 ± 1.7 | 33.0 ± 1.5 | 34.8 ± 1.8 | 33.9 ± 2.8 | 8.7 ± 1.5 | 22.9 ± 1.6 | 14.9 ± 5.3 | 12.9 ± 4.4 | 13.9 ± 1.9 | 26.8 ± 1.9 | 10.7 ± 2.6 | 11.8 ± 2.3 | 43.9 ± 2.9 | Percentage cytotoxicity ([1]; 1 nM): 36 ± 1.0%; Percentage cytotoxicity ([1]; 10 nM): 44 ± 1.3%; Percentage cytotoxicity ([1]; 100 nM): 48 ± 1.7%; Percentage cytotoxicity ([1]; 1 μM): 31 ± 1.5%; Percentage cytotoxicity ([4]; 1 μM): 32.8 ± 2.2%; Percentage cytotoxicity (PA-1 (Ovary) tumor cells; 10 nM): 45.8 ± 1.2%; Percentage cytotoxicity (PA-1 (Ovary) tumor cells; 100 nM): 38.5 ± 1.6%; Percentage cytotoxicity (PA-1 (Ovary) tumor cells; 1 μM): 33.7 ± 1.6%; Percentage cytotoxicity ([6]; 1 nM): 18.7 ± 5.3%; Percentage cytotoxicity ([6]; 10 nM): 19.9 ± 4.2%; Percentage cytotoxicity ([6]; 100 nM): 31.9 ± 2.8%; Percentage cytotoxicity ([6]; 1 μM): 25.8 ± 2.3%; percentage inhibition of tumor growth as compared to controls ([7]; day 20, intravenous 12.6 μg twice a day (25.2 μg/day) for 14 days, PTC xenografts in nude mice): 95.85%; antitumor activity on PTC xenografts (in words) ([7]; intravenous 25.2 μg/day for 14 days, tumor kinetics till day 20): significant antitumor activity |
| n-Octanoyl-Leu-Met-Tyr-Pro-Thr-Tyr-Leu-Lys-OH (Octanoyl-LMYPTYLK-OH) [DT-O1] | 21.0 ± 0.6 | 34.9 ± 3.1 | 26.9 ± 2.2 | 23.9 ± 1.3 | 37.0 ± 1.6 | 38.7 ± 1.7 | 28.6 ± 1.2 | 21.9 ± 1.5 | 30.0 ± 1.4 | 33.7 ± 2.8 | 32.8 ± 2.8 | 8.6 ± 2.5 | 22.9 ± 1.2 | 17.9 ± 2.3 | 18.8 ± 4.2 | 19.4 ± 2.9 | 25.9 ± 1.7 | 14.9 ± 2.5 | 7.9 ± 2.3 | 26.0 ± 3.9 | Percentage cytotoxicity ([1]; 1 nM): 28 ± 5.4%; Percentage cytotoxicity ([1]; 10 nM): 32 ± 0.3%; Percentage cytotoxicity ([1]; 100 nM): 33 ± 3.2%; Percentage cytotoxicity ([1]; 1 μM): 29 ± 5.5%; Percentage cytotoxicity (PA-1 (Ovary) tumor cells; 10 nM): 37.8 ± 2.2%; Percentage cytotoxicity (PA-1 (Ovary) tumor cells; 100 nM): 22.6 ± 3.6%; Percentage cytotoxicity (PA-1 (Ovary) tumor cells; 1 μM): 6.0 ± 1.4%; Percentage cytotoxicity ([6]; 1 nM): 16.9 ± 1.3%; Percentage cytotoxicity ([6]; 10 nM): 27.9 ± 3.2%; Percentage cytotoxicity ([6]; 100 nM): 24.9 ± 2.4%; Percentage cytotoxicity ([6]; 1 μM): 23.9 ± 2.2% |
